From PMC4098744, “Systematic family‐wide analysis of sodium bicarbonate cotransporter NBCn1/SLC4A7 interactions with PDZ scaffold proteins” (Physiological Reports, 2014) come the findings set out here.

The target of this test is T1, PSD‐95 third PDZ domain (residue 307–446) (UniProt P78352 307-446).
T1 construct: also called PSD‐95 (3); PSD‐95 (domain 3); source: spotted on a PDZ array membrane (Zhang et al. 2007)
Description: peptide or protein array; PDZ filter overlay: 96 Class I PDZ domains spotted on a nylon membrane; overlaid with 100 nmol/L GST/NBCn1 (or GST only) in blot buffer (50 mmol/L NaCl, 2% dry milk, 0.1% Tween 20, 10 mmol/L HEPES; pH 7.4) for 1 h at room temperature; detected with HRP-conjugated anti-GST antibody; done three times. The note with it: both partners purified.

T1 sequence (P78352 307-446): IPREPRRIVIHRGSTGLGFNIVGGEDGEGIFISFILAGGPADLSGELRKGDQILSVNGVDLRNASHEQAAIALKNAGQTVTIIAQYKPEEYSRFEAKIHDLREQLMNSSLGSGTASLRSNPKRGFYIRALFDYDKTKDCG

B1: GST/NBCn1 fusion protein containing the C‐terminal 26 amino acids of rat NBCn1 (domain or fragment, UniProt Q9R1N3-2 1229-1254, looked up)
chain: PEKPVSVTINFEDEPSKKYMDAETSL
notes: NBCn1 (SLC4A7), rat, the C-terminal 26 amino acids; also called C‐terminal domain of NBCn1 fused to GST; source: prepared as described previously (Lee et al. 2012)
On to B1, for which the binding result is recorded as “binds”.
